According to patent US20100015155A1 (Eli Lilly, published 2010):

Assays:
[1] = target: T1, human soluble Abeta (1-40) (human, UniProt P05067 672-711); experiment: KinExA equilibrium, ratio of KD values
T1 construct: domain: Abeta (1-40); The numbers 1-40 count on the Aβ peptide, not on the APP precursor entry; also called Human Abeta (1-40); human abeta
Description: (§1) KinExA analysis is used as an orthogonal approach to measure binding affinity through equilibrium binding analysis due to the slow off-rate of the antigen Fab complex. A KinExA 3000 instrument (Sapidyne Inst. Inc.) is used to measure binding kinetics. Briefly, the antigen is covalently coupled to sepharose beads and the binding of free Fab/Fab-PEG to the beads is detected on the instrument. […] After the incubation, free Fab/Fab-PEG in each equilibrated sample is determined on the KinExA 3000 according to the manufacturer's instructions. Kd values are determined by n-Curve Analysis using KinExA 3000 software.

[2] = target: T1, human soluble Abeta (1-40); experiment: KinExA equilibrium, antigen on sepharose beads, soluble Abeta (1-40) titrated, 37 C; 1A1 Fab, not PEGylated
Description: as §1

T1 sequence (P05067 672-711 limits assumed): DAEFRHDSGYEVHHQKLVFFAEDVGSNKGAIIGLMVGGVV

fold affinity against murine 266 Fab [1]: ~10 fold
Kd [2]: 0.019 nM
B1: 1A1-Fab (humanized antibody Fab fragment, LCVR of SEQ ID NO: 1 and HCVR of SEQ ID NO: 2) (Fab, V domains shown)
VH: EVQLVESGGGLVKPGGSLRLSCAASGYTFSRYSMSWVRQAPGKGLEWVGQINIRGCNTYYPDTVKGRFTISRDDSKNTLYLQMNSLKTEDTAVYYCTTGDFWGQGTLVTVSS
VL: DIVMTQTPLSLSVTPGQPASISCSSSQSLIYSDGNAYLHWYLQKPGQSPQLLIYKVSNRFSGVPDRFSGSGSGTDFTLKISRVEAEDVGVYYCTQSTHSPWTFGGGTKVEIK
notes: Fab without PEG; CH1 and CL are not; The light chain is human kappa, since it is captured or detected with anti-human kappa; also called humanized 1A1-Fab; 1A1 N56C Fab
